One substance from publication PMC9523886 can be followed below.

What all share (test): FCCS
In assay [1] the target is GFP-DscIA (Discoidin I, paralog A, fused with GFP) (D. discoideum).
The target is the same in assay [2]. This is another data set of the same source.
Assay [3] shares this target. The source holds these as a separate data set.

Read-outs that look alike come from different tables or passages of the source.

A word on the Kd: it is the equilibrium constant for the complex coming apart. A low value points to tighter binding.

For the substance “mCh-MyoII (mCherry-tagged Myosin II) (from UniProt P08799 1-2116) (natural protein)”, the Kd was determined as 2800 nM in assay [1], 2900 nM in assay [2] and 1900 nM in assay [3].
